# In the supplement of paper PMC10065799, “High-throughput profiling of sequence recognition by tyrosine kinases and SH2 domains using bacterial peptide display” (eLife, 2023):
# Experiments:
# MERTK = MERTK (UniProt Q12866); assay: phosphorylation enrichment, bacterial display (enrichment ratio); higher = better substrate or ligand; peptides without Tyr show the background
# c-Src = assay: as above
# FGFR1 = FGFR1 (UniProt P11362); assay: as above
# AncSZ = assay: as above
# Hck = Hck (UniProt P08631); assay: as above
# Fer (mouse) = assay: as above
# EPHB1 = EPHB1 (UniProt P54762); assay: as above
# Sequence of EPHB1 (P54762 whole entry, looked up): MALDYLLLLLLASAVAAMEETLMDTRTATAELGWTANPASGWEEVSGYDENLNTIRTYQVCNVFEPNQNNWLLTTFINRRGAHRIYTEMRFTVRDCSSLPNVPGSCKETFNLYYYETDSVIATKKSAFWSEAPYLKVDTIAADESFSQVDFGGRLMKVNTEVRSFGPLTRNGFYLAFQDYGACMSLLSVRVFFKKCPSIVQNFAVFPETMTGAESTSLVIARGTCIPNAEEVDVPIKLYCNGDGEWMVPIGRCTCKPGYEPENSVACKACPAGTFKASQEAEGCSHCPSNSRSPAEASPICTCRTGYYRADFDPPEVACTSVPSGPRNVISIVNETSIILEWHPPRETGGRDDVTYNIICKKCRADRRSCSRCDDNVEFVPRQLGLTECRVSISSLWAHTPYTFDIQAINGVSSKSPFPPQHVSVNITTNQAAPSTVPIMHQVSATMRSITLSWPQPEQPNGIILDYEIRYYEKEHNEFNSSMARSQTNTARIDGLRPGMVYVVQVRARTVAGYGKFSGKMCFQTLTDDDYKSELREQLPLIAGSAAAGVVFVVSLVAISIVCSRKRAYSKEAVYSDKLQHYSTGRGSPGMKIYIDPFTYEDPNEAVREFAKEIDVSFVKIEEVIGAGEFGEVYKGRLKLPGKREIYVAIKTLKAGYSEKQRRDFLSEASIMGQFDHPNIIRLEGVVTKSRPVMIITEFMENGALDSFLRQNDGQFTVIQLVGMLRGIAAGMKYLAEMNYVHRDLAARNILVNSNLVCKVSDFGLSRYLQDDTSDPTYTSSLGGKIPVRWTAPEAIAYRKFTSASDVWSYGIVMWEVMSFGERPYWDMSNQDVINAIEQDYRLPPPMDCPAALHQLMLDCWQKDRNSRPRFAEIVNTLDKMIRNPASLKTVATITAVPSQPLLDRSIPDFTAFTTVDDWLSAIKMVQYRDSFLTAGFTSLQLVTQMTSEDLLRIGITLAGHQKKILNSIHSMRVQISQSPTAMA
# EPHB2 = EPHB2 (UniProt P29323); assay: as above
# Fyn = Fyn (UniProt P06241); assay: as above
# Fes = Fes (UniProt P07332); assay: as above
# FGFR3 = FGFR3 (UniProt P22607); assay: as above
# Sequence of FGFR3 (P22607 whole entry, looked up): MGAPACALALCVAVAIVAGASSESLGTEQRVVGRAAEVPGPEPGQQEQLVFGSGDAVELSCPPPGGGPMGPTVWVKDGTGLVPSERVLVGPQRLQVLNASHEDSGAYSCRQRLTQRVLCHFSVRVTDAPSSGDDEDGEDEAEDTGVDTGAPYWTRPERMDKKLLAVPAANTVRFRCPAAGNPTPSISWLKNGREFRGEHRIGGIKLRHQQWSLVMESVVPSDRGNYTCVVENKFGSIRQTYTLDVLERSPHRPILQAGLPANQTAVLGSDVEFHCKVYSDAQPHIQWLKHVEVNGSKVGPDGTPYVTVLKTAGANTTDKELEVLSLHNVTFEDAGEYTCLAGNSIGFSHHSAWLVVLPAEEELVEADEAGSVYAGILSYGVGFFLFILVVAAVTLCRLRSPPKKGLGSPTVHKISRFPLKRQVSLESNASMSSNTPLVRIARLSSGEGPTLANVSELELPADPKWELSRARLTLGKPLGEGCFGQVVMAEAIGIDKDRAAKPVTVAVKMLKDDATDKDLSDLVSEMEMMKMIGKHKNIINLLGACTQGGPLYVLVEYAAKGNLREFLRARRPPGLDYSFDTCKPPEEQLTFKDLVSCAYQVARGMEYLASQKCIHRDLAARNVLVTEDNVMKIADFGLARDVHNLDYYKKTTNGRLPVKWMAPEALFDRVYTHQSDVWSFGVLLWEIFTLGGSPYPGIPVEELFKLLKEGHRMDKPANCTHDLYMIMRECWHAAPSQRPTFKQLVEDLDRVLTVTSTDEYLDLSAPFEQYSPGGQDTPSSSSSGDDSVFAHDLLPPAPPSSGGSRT
# c-Abl (mouse) = assay: as above
# Jak2 = Jak2 (UniProt O60674); assay: as above
# Sequence of Jak2 (O60674 whole entry, looked up): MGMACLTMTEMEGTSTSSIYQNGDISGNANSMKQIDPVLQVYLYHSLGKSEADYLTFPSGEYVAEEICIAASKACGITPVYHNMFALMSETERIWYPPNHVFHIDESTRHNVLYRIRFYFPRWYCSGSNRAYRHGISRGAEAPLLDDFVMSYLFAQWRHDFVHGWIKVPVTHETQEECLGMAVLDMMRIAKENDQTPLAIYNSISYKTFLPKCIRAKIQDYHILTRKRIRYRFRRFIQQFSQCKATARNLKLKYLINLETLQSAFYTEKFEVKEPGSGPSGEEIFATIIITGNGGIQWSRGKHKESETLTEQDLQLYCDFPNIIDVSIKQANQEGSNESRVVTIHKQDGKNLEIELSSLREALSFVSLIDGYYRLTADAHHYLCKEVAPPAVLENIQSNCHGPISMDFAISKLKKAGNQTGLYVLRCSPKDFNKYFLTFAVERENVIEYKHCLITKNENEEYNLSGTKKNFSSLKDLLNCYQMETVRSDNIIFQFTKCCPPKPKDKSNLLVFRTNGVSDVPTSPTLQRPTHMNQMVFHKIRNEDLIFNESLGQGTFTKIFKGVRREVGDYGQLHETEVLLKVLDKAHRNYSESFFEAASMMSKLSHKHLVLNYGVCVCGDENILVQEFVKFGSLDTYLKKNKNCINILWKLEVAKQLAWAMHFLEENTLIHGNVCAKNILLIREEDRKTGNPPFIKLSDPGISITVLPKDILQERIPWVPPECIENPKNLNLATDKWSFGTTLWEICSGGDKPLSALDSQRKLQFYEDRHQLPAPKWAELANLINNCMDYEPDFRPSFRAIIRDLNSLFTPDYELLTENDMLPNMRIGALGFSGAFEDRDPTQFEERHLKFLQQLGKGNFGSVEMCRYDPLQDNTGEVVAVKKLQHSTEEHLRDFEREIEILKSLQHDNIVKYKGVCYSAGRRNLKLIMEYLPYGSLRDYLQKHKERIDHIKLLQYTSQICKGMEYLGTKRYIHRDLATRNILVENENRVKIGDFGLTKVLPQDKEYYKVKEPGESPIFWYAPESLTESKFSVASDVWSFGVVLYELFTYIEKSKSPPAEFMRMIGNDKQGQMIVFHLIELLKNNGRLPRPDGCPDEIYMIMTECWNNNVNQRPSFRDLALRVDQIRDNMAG
# Grb2 SH2 = Grb2 SH2 (UniProt P62993); assay: SH2 binding enrichment of the phosphorylated peptide, bacterial display (enrichment ratio); higher = better substrate or ligand; peptides without Tyr show the background
# Sequence of Grb2 SH2 (P62993 whole entry, looked up): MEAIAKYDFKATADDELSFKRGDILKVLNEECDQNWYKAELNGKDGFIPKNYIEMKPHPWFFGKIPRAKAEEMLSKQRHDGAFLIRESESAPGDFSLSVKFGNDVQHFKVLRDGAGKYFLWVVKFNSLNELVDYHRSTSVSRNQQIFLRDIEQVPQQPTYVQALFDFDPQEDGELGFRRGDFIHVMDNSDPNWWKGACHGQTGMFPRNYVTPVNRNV
# c-Src SH2 = assay: as above
# SHP2-C SH2 = assay: as above
# 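For SH2 binding enrichment of the phosphorylated peptide, bacterial display in this document: peptide library displayed on the E. coli surface as eCPX fusions, selected cells deep-sequenced, score is each peptide's frequency after selection divided by its frequency in the input.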
# 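For phosphorylation enrichment, bacterial display in this document: 11-residue human phosphosite peptides and single-mutation variants displayed on the E. coli surface, counted by deep sequencing, each peptide's frequency after selection divided by its frequency in the unselected input library; frequency after pTyr selection over input frequency; kinase dosed for 20-30% of maximal phosphorylation in three min.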
# Sequence of FGFR1 (P11362 whole entry, looked up): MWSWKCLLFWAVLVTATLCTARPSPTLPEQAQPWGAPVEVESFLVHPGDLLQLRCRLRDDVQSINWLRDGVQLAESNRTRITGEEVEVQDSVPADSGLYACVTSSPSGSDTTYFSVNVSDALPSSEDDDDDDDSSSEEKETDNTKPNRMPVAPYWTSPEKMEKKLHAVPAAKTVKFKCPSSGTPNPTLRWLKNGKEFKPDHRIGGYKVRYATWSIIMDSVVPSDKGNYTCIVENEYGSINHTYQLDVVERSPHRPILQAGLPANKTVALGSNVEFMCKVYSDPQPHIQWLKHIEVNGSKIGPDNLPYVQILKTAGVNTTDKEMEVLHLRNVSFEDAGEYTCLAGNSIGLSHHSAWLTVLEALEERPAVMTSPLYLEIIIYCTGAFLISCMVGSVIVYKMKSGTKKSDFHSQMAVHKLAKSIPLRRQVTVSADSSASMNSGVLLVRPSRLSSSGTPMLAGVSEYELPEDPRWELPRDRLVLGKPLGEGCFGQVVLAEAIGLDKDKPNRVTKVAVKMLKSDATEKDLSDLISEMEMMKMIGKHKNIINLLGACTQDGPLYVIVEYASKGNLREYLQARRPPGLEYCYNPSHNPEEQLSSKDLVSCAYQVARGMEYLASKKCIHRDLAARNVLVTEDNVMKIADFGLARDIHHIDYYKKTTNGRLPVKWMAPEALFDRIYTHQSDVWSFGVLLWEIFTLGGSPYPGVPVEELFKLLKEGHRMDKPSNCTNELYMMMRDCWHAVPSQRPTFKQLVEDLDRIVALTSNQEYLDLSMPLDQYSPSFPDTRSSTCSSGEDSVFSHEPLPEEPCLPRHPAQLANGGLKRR
# Sequence of MERTK (Q12866 whole entry, looked up): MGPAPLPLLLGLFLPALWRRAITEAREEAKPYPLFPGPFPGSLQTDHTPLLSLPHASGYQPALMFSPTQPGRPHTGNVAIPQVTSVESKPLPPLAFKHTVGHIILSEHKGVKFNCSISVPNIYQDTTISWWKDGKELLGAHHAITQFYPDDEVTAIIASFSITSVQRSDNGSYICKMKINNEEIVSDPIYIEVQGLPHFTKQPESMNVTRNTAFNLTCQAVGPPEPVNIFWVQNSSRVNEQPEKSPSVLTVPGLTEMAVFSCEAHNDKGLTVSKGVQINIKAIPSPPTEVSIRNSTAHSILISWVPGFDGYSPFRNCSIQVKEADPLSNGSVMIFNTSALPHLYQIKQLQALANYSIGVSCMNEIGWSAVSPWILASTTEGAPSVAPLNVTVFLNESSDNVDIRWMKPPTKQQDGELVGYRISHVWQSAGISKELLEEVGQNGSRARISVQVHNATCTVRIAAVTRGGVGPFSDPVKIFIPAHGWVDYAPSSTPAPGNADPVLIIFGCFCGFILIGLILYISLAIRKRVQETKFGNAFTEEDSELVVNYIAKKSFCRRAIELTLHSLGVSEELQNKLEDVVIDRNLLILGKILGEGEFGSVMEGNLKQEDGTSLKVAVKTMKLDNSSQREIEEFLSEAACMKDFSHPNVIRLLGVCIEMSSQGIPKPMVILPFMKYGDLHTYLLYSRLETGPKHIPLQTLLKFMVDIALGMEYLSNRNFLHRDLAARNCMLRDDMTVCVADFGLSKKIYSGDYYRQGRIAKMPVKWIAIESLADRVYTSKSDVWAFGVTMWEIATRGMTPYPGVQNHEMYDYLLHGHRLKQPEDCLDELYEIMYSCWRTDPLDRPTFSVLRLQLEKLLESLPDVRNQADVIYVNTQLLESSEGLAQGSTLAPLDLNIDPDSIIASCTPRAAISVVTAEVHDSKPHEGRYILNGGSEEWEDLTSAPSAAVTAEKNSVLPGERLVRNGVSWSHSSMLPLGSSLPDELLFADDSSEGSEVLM
Sequence,phosphorylation enrichment (MERTK),phosphorylation enrichment (c-Src),phosphorylation enrichment (FGFR1),phosphorylation enrichment (AncSZ),phosphorylation enrichment (Hck),phosphorylation enrichment (Fer (mouse)),phosphorylation enrichment (EPHB1),phosphorylation enrichment (EPHB2),phosphorylation enrichment (Fyn),phosphorylation enrichment (Fes),phosphorylation enrichment (FGFR3),phosphorylation enrichment (c-Abl (mouse)),phosphorylation enrichment (Jak2),SH2 binding enrichment (Grb2 SH2),SH2 binding enrichment (c-Src SH2),SH2 binding enrichment (SHP2-C SH2)
TDDMRYPMKSE [TGDS_Y302_N298D],0.488,0.455,0.529,0.77,0.42,0.518,0.378,0.527,0.43,0.863,0.621,0.651,0.694,0.827,0.439,0.626
TDHLRYFDSNK [ARAP1_Y359],0.466,0.41,0.414,1.04,0.451,0.456,0.611,0.442,0.428,0.794,0.573,1.14,0.665,0.968,0.507,0.714
TDLAYYLVREG [ASL_Y376_K380E],1.34,1.67,9.61,1.54,0.955,0.466,0.578,0.706,0.734,0.905,7.06,0.579,3.04,0.751,1.51,2.07
TEALFYTDDPA [ADPRS_Y75_T79P_YF],0.699,0.797,0.734,1.62,0.76,0.863,1.05,0.894,0.645,1.82,1.3,1.25,1.65,0.636,0.626,0.397
TEALYYTDDTA [ADPRS_Y75],4.21,1.9,3.91,1.46,1.82,1.97,1.31,0.78,2.63,2.09,4.22,0.633,0.833,0.912,0.856,0.847
TEDAEYDVQSK [PTCHD3_Y335_P333A],0.492,0.535,0.515,1.38,0.591,0.606,0.611,0.609,0.539,1.14,0.689,0.848,1.07,1.01,0.644,0.698
TEQMAYCPIQC [SHC4_Y403],0.678,0.949,0.609,1.17,0.949,1.14,0.434,0.676,0.421,1.02,0.737,0.754,1.26,0.793,0.777,0.643
TESALYGCTIL [MAP3K21_Y724_V728I],1.57,6.06,0.5,1.17,4.18,4.72,0.68,0.989,6,1.62,1.19,1.59,1.65,1,0.46,0.625
TFAVSYLPDMS [FLNC_Y1602_T1599A_YF],0.441,0.378,0.5,0.939,0.5,0.439,0.598,0.392,0.466,1.21,0.816,0.61,0.741,0.905,0.566,1.01
TFEYRYLEDRD [CNOT3_Y746],0.493,0.537,0.935,1.16,0.534,0.472,0.623,0.504,0.545,1.35,0.848,0.827,1.02,0.76,1.01,0.81
TINPIHEHVGF [CHN1_Y143_Y143H_YF],0.328,0.339,0.393,0.433,0.299,0.397,0.321,0.346,0.335,0.619,0.441,0.477,0.429,0.813,0.519,0.757
TKDTIYKQPMF [GBA_Y451_F450I],0.499,0.6,0.406,0.704,0.8,0.391,0.503,0.439,0.502,0.821,0.57,17.4,0.907,0.886,0.446,1.15
TLARLYHPDST [LRIG1_Y1029],0.355,0.302,0.344,0.508,0.416,0.364,0.422,0.549,0.575,0.743,0.429,0.672,0.609,0.646,0.372,0.681
TLEKYYFAFPG [SLC1A1_Y51_F50Y],11.5,6.16,14.6,1.75,3.38,0.632,7.36,11.1,4.5,1.09,12,9.74,8.54,1.06,0.614,0.954
TLERHYKELQA [SPTBN2_Y834_E835K],0.571,0.472,0.449,0.713,0.375,0.415,0.363,0.546,0.446,0.787,0.509,0.612,0.704,0.773,0.493,0.593
TLKDVYDDGKY [RPS6KA3_Y483],0.557,0.62,0.557,1.02,0.706,0.506,0.51,0.497,0.58,1.12,0.64,0.758,0.909,0.85,0.528,0.737
TLKVGYTEKQR [EPHA3_Y659],0.322,0.328,0.404,0.417,0.353,0.386,0.259,0.299,0.27,0.378,0.351,0.369,0.407,1.08,0.486,0.714

Sequence,phosphorylation enrichment (MERTK),phosphorylation enrichment (c-Src),phosphorylation enrichment (FGFR1),phosphorylation enrichment (AncSZ),phosphorylation enrichment (Hck),phosphorylation enrichment (Fer (mouse)),phosphorylation enrichment (EPHB1),phosphorylation enrichment (EPHB2),phosphorylation enrichment (Fyn),phosphorylation enrichment (Fes),phosphorylation enrichment (FGFR3),phosphorylation enrichment (c-Abl (mouse)),phosphorylation enrichment (Jak2),SH2 binding enrichment (Grb2 SH2),SH2 binding enrichment (c-Src SH2),SH2 binding enrichment (SHP2-C SH2)
TLQSMSGCDVG [HLA-B_Y123_Y123S],0.421,0.406,0.48,0.677,0.482,0.499,0.488,0.601,0.42,0.791,0.932,0.536,1.38,0.836,0.491,0.488
TLSGIYQYSIA [FOXL2_Y81_I84S],6.7,4.21,0.952,1.24,3.56,8.33,2.73,1.98,4.22,0.899,1.03,1.53,0.65,0.814,1.93,1.83
TPIFPYLLPKS [PLD2_Y580_T577I_YF],0.538,0.489,0.825,0.632,0.64,0.551,0.467,0.463,0.799,0.685,1.57,0.7,0.723,0.877,0.393,0.451
TQKLAYVELQQ [CENPF_Y700_M701V],0.395,0.525,0.754,1.07,0.453,0.449,0.507,0.561,0.445,1,0.643,1.03,0.904,0.874,0.932,1.75
TSKLSYLDPRI [TOP1_Y723_N722S],0.539,0.479,0.611,0.639,0.446,0.619,0.607,0.427,0.435,0.679,0.592,0.567,0.939,0.833,0.535,0.548
TSNQEYLFLSM [FGFR1_Y766_D768Y_YF],0.469,0.488,5.2,1.21,0.572,0.557,0.765,0.721,0.574,1.09,3.32,0.813,1.06,0.877,0.358,0.563
TSPKSCPSQKH [CAP2_Y316_Y316C],0.476,0.415,0.432,0.546,0.472,0.385,0.385,0.361,0.461,0.619,0.521,0.688,0.73,0.971,0.759,0.967
TSSAVYMNLAS [GATAD2B_Y317_I316V],3.69,3.04,1.31,0.759,4.17,0.818,1.67,0.65,3.21,0.83,1.09,0.755,0.776,7.6,1.88,1.78
TVQVAYYTMMM [SPATA17_Y83],9.05,4.49,10.8,1.91,2.19,3.74,3.4,1.76,2,1.85,9.18,1.36,4.2,0.782,1.25,0.852
TVQVAYYTVMM [SPATA17_Y83_M86V],5.44,2.09,5.72,1.52,1.74,1.59,2.96,1.61,1.59,1.5,4.63,0.972,2.57,1.06,0.925,0.812
VATRWYRSPEL [CDKL5_Y177],0.459,0.448,0.372,0.834,0.482,0.384,0.421,0.516,0.385,0.73,0.518,0.575,1,1.07,0.523,0.604
VDGSVYKLHPS [GCK_Y413],0.424,3.28,0.536,0.581,1.03,0.642,0.467,0.543,2.64,0.655,0.583,0.614,0.735,0.755,0.488,1.01
VDHFGYTKDDK [APOB_Y740],0.395,0.393,0.497,0.709,0.463,0.408,0.388,0.327,0.369,0.764,0.498,0.67,0.762,0.819,0.592,0.95
VDSAHYKLLET [DTX3L_Y385],0.419,0.401,0.485,0.665,0.543,0.427,0.355,0.574,0.485,0.722,0.657,0.466,0.517,0.793,0.517,0.67
VDSLRYIFPKL [EIF2B3_Y92_A87V_YF],0.531,0.526,0.486,0.704,0.385,0.463,0.449,0.38,0.372,0.9,0.51,0.85,0.822,1.01,0.752,1.27
VDSNPYSRLMA [UBA5_Y53],0.524,1.16,0.468,0.608,1.72,1.04,0.465,0.488,0.756,0.657,0.533,0.469,0.47,0.699,1.57,3.31
